Tested on: MS2 coat protein
Experiment: apparent KD of MS2 coat protein; designed switch direction (-1 OFF switch, 1 ON switch): -1; higher = weaker reporter binding
Outline: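 RNA switches sharing common flanks were transcribed by stalled E. coli RNA polymerase on Illumina chips. A doubling series of SNAP-549-labelled MS2 coat protein, from 0.7 or 1.5 nM to 3 µM, was applied in Tris-HCl pH 7.5 buffer with KCl, MgCl2, BSA, DTT, tRNA and Tween-20. Each step lasted 0.8–1.5 h at the bottom of the series and 10–20 min at the top. Normalised cluster fluorescence was curve-fitted, giving apparent KD as the per-design median over clusters.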

[1] = input ligand: microRNA oligo, concentration not stated
[2] = Eterna round: R95, input ligand: microRNA oligo, concentration not stated
[3] = Eterna round: R95, input ligand: FMN 200 uM
[4] = Eterna round: R95, input ligand: none

Sequence: AAAUUGUGAGGAUAUCCAAUAUAUGACAUGAGGAUCACCCAUGUUUCCACUCGUACCUCCGGAGAAGGCACUUAAA [Ex5 #44] (Eterna round: R97, puzzle: Exclusion 5)
- apparent KD of MS2 coat protein (input ligand: FMN 200 uM): 27.1 nM
- apparent KD of MS2 coat protein (input ligand: none): 25.5 nM

Sequence: AACAAGCUUUAAAGAUCCUACAUGAGGAUCACCCAUGUGCUCGUCUUGUAACGUACUGUGACGAAAGUCACGGUACG [JL TOV1 3.27] (Eterna round: R97, puzzle: Sensor, turn-off variant 1)
- apparent KD of MS2 coat protein (input ligand: FMN 200 uM): 205 nM
- apparent KD of MS2 coat protein (input ligand: none): 278 nM

Sequence: AACAGUCUGGAGGAUAUGCUGGAUUAAUAUCUGGCAGAAGGCUUGACAUGAGGAUCACCCAUGUAAAUACUACC [Omei Ex6 A3] (Eterna round: R97, puzzle: Exclusion 6)
- apparent KD of MS2 coat protein (input ligand: FMN 200 uM): 25.9 nM
- apparent KD of MS2 coat protein (input ligand: none): 20.8 nM

Sequence: AACAGUGUAGGAUAUACAGGGCAAACGGCACCCGUCUCCGGACAUGAGGAUCACCCAUGUAGAAGGACACCUAU [EX2 C.16] (Eterna round: R97, puzzle: Exclusion 2)
- apparent KD of MS2 coat protein (input ligand: FMN 200 uM): 246 nM
- apparent KD of MS2 coat protein (input ligand: none): 47.4 nM

Sequence: AACAUGUGAGGAUAUGAGAACAGUCCGGAGGACUGUGUAAAUUAGAAGGCACAUGAGGAUCACCCAUGUGACCU [Laonar] (Eterna round: R97, puzzle: Exclusion 4)
- apparent KD of MS2 coat protein (input ligand: FMN 200 uM): 32.6 nM
- apparent KD of MS2 coat protein (input ligand: none): 15.8 nM

Sequence: AACCUACAUGAGGAUCACCCAUGUGAGGAUAUAUUGGUAUUGAUGUUAUUUUUUAGAGGUAGAAGGCGCGUGAU [JR_Exc1_Sub022] (Eterna round: R97, puzzle: Exclusion 1)
- apparent KD of MS2 coat protein (input ligand: FMN 200 uM): 15 nM
- apparent KD of MS2 coat protein (input ligand: none): 14 nM

Sequence: AACCUACAUGAGGAUCACCCAUGUGAGGAUAUAUUGUUAUGGAUGUUAUUUUGUAGUGGUAGAAGGCGCGUGAU [JR_Exc1_Sub024] (Eterna round: R97, puzzle: Exclusion 1)
- apparent KD of MS2 coat protein (input ligand: FMN 200 uM): 19 nM
- apparent KD of MS2 coat protein (input ligand: none): 15.9 nM

Sequence: AACCUGAGGCAAAGCUUUAGGUGUACAUGAGGAUCACCCAUGUAGGAUAUGGUAAGCAAAGCUUACCAGAAGGACAUAAUGAUG [Mat - Exclusion NG 3 - Mod of JL - D48] (Eterna round: R96, puzzle: Exclusion NG 3)
- apparent KD of MS2 coat protein (input ligand: FMN 200 uM): 134 nM
- apparent KD of MS2 coat protein [1]: 70.1 nM
- apparent KD of MS2 coat protein (input ligand: none): 90.2 nM

Sequence: AACCUGAGGCUUUGCUUUAGGUUUACAUGAGGAUCACCCAUGUAGGAUAUGGUAGGCAUAGCUUACCAGAAGGACAUGAAAAUU [Mat - Exclusion NG 3 - Mod of JL - D29] (Eterna round: R96, puzzle: Exclusion NG 3)
- apparent KD of MS2 coat protein (input ligand: FMN 200 uM): 293 nM
- apparent KD of MS2 coat protein [1]: 34.1 nM
- apparent KD of MS2 coat protein (input ligand: none): 43.3 nM

Sequence: AACGAUCUAGGAUAUACAUGAGGAUCACCCAUGUAAGAGCUCAAACCGAGCUCCCUCUGUAGAAGGAGGUCAAA [Atquteuson] (puzzle: Exclusion 3)
- apparent KD of MS2 coat protein [2]: 48.5 nM

Sequence: AACUCUGAGAAGGAUAUUCAGUGGGAAACGACAGAAGAAGGUUUCACAUGAGGAUCACCCAUGUCGAAUAGUGA [EX6 #75] (Eterna round: R97, puzzle: Exclusion 6)
- apparent KD of MS2 coat protein (input ligand: FMN 200 uM): 46.8 nM
- apparent KD of MS2 coat protein (input ligand: none): 48.8 nM

Sequence: AAGAAACAUGAGGAUCACCCAUGUGAGGAUAUGAAAAAUAAAAGAAAAGAAAGAAUAAUCAGAAGGCACAAAGG [Mat - Mod of Hog D10] (puzzle: Exclusion 1)
- apparent KD of MS2 coat protein [3]: 51.4 nM
- apparent KD of MS2 coat protein [2]: 37.3 nM
- apparent KD of MS2 coat protein [4]: 41.4 nM

Sequence: AAGAAACAUGAGGAUCACCCAUGUGAGGAUAUGAAUAAGAAAAGAAAAGAAAGAAGAAUCAGAAGGCACAAAGG [salish99-ex1_r3_045] (puzzle: Exclusion 1)
- apparent KD of MS2 coat protein [3]: 49.5 nM
- apparent KD of MS2 coat protein [2]: 40.5 nM
- apparent KD of MS2 coat protein [4]: 37.2 nM

Sequence: AAGAAACAUGAGGAUCACCCAUGUGAGGAUAUGACUAAGAAAAGAAAAGAAAGAAGAUUCAGAAGGCACAAAGG [salish99-ex1_r3_062] (puzzle: Exclusion 1)
- apparent KD of MS2 coat protein [3]: 91.2 nM
- apparent KD of MS2 coat protein [2]: 42.3 nM
- apparent KD of MS2 coat protein [4]: 46.1 nM

Sequence: AAGAAACAUGAGGAUCACCCAUGUGAGGAUAUGAGAAAGAAAAGAAAAGAAAGAAGAUUCAGAAGGCACAAAGG [salish99-ex1_r3_035] (puzzle: Exclusion 1)
- apparent KD of MS2 coat protein [3]: 91.9 nM
- apparent KD of MS2 coat protein [2]: 43.9 nM
- apparent KD of MS2 coat protein [4]: 50 nM

Sequence: AAGAAACAUGAGGAUCACCCAUGUGAGGAUAUGAUUAAGAAAAGAAAAGAAAGAAGAGUCAGAAGGCACAAAGG [salish99-ex1_r3_063] (puzzle: Exclusion 1)
- apparent KD of MS2 coat protein [3]: 84.9 nM
- apparent KD of MS2 coat protein [2]: 48.8 nM
- apparent KD of MS2 coat protein [4]: 61.8 nM

Sequence: AAGAAACAUGAGGAUCACCCAUGUGAGGAUAUGCAAGAAAGAAAGAAAGAAAGAAGAAGCAGAAGGCACAAAGG [Gaius Turranius] (Eterna round: R96, puzzle: Exclusion 1)
- apparent KD of MS2 coat protein (input ligand: FMN 200 uM): 84.7 nM
- apparent KD of MS2 coat protein [1]: 29.7 nM
- apparent KD of MS2 coat protein (input ligand: none): 50.7 nM

Sequence: AAGAACUAAGGAUAUACAUGAGGAUCACCCAUGUCUUUUACAUGUUACUGGCCCGCAUGUAGAAGGUAGAAAAG [Tianrasoed] (Eterna round: R96, puzzle: Exclusion 3)
- apparent KD of MS2 coat protein (input ligand: FMN 200 uM): 182 nM
- apparent KD of MS2 coat protein [1]: 74.4 nM
- apparent KD of MS2 coat protein (input ligand: none): 85 nM

Sequence: AAGAACUUAGGAUAUACAUGAGGAUCACCCAUGUAGCUUCACUUGGGCCUGAGCCCGUGUAGAAGGAAGAAAAU [Arge] (Eterna round: R96, puzzle: Exclusion 3)
- apparent KD of MS2 coat protein (input ligand: FMN 200 uM): 68.3 nM
- apparent KD of MS2 coat protein [1]: 47.6 nM
- apparent KD of MS2 coat protein (input ligand: none): 73.5 nM

Sequence: AAGAACUUAGGAUAUACAUGAGGAUCACCCAUGUAGCUUCACUUGGGCCUGAGCCCGUGUAGAAGGAAGAAAAU [Arge] (puzzle: Exclusion 3)
- apparent KD of MS2 coat protein [2]: 66 nM

Sequence: AAGAAGAAGUAAGGAUAUGAAGAUCUGGUGGUGACAUGAGGAUCACCCAUGUGAAAACGAUGAGAUCAGAAGGUACAAGAAGAA [AK ExNG2-3.4] (Eterna round: R96, puzzle: Exclusion NG 2)
- apparent KD of MS2 coat protein (input ligand: FMN 200 uM): 86.4 nM
- apparent KD of MS2 coat protein [1]: 65.3 nM
- apparent KD of MS2 coat protein (input ligand: none): 77.8 nM

Sequence: AAGAAGAUAGGAUAUACGAGGAGAGAAGAGAAGAAAGGAGGACAUGAGGAUCACCCAUGUAGAAGGAUCAGGAA [JR_Exclu2_Sub061] (puzzle: Exclusion 2)
- apparent KD of MS2 coat protein [3]: 50.2 nM
- apparent KD of MS2 coat protein [2]: 41 nM
- apparent KD of MS2 coat protein [4]: 40.5 nM

Sequence: AAGAAGCGAGGAUAUGCAAAAGAAAAGAAGAAGAAGAAAGAACAUGAGGAUCACCCAUGUAGAAGGCGCAAGAA [Mine, too!] (puzzle: Exclusion 2)
- apparent KD of MS2 coat protein [3]: 19.8 nM
- apparent KD of MS2 coat protein [2]: 20.8 nM
- apparent KD of MS2 coat protein [4]: 22.2 nM

Sequence: AAGAAGUAAGGAUAUGGCCGGGUCCCUGGGUUUGGACCCGGCUAGAAGGUACAUGAGGAUCACCCAUGUAAGAA [Excls4-IX] (puzzle: Exclusion 4)
- apparent KD of MS2 coat protein [2]: 13.1 nM

Sequence: AAGAAUCUAGGAUAUUAGCGGGCCUACAUGAGGAUCACCCAUGUCGUGUCGCGGGUAUGCUGAGAAGGAGAGCACA [EX5 B.5] (Eterna round: R97, puzzle: Exclusion 5)
- apparent KD of MS2 coat protein (input ligand: FMN 200 uM): 16.3 nM
- apparent KD of MS2 coat protein (input ligand: none): 16.3 nM

Sequence: AAGACAAAUGUAGGAUAUGCGUGGCGAAGCUAUGCAGAAGGACAUGAGGAUCACCCAUGUCUUAGCGUCUGCGUACAGAUGCUA [JL eng1 1.35 mod 9] (Eterna round: R96, puzzle: Exclusion NG 1)
- apparent KD of MS2 coat protein [1]: 12.1 nM

Sequence: AAGAGGAUCGGAGGAUAUGGAGCUGAAACGGCGCUAGAAGGCCGUCCAGUGUAACAUGAGGAUCACCCAUGUAGGGACCUCUAA [EX ng 1 4.1] (Eterna round: R96, puzzle: Exclusion NG 1)
- apparent KD of MS2 coat protein (input ligand: FMN 200 uM): 314 nM
- apparent KD of MS2 coat protein [1]: 65.5 nM
- apparent KD of MS2 coat protein (input ligand: none): 102 nM

Sequence: AAGAGGCUAGGAUAUACAUGAGGAUCACCCAUGUGAGGGCACGGCCGGCGCGUGGCCGGUAGAAGGAGUCAAAA [Exc;s3-VIII] (puzzle: Exclusion 3)
- apparent KD of MS2 coat protein [2]: 17.5 nM

Sequence: AAGAUGCGGAUAGGAUAUGGAGAGAAAGAAAGACCAGAAGGAUUGGUCAUAUAACAUGAGGAUCACCCAUGUAUAUGUUGUGAA [AK ExNG1-3.2] (Eterna round: R96, puzzle: Exclusion NG 1)
- apparent KD of MS2 coat protein [1]: 13 nM

Sequence: AAGAUUAUUUCAGGAUAUAGAUUGAUGAUCGUACUAGAAGGGAAAACACAGUACAUGAGGAUCACCCAUGUUCAUGUAGUGCCA [Eternabot solution 29] (Eterna round: R96, puzzle: Exclusion NG 1)
- apparent KD of MS2 coat protein (input ligand: FMN 200 uM): 17.2 nM
- apparent KD of MS2 coat protein [1]: 13.4 nM
- apparent KD of MS2 coat protein (input ligand: none): 17.4 nM

Sequence: AAGCCUCAAGUUAGGAUAUUAAUAAGGCAAAUUAUUAAGAAGGGACAUGAGGAUCACCCAUGUAAAAUUCUCAC [Biedredi] (Eterna round: R97, puzzle: Brourd's mod of Exclusion 4)
- apparent KD of MS2 coat protein (input ligand: FMN 200 uM): 140 nM
- apparent KD of MS2 coat protein (input ligand: none): 57.5 nM

Sequence: AAGCGCGAGGCAGGAUAUGCAGAGCGGGUGGCCCGUGCAGAAAAUAACAUGAGGAUCACCCAUGUGCAGAAGGGCCGGGUGACC [Anataredra] (Eterna round: R96, puzzle: Exclusion NG 2)
- apparent KD of MS2 coat protein (input ligand: FMN 200 uM): 60.5 nM
- apparent KD of MS2 coat protein [1]: 36.1 nM
- apparent KD of MS2 coat protein (input ligand: none): 72.9 nM

Sequence: AAGGUGUUAGGAUAUCGUAGUUUGUGGCAGACGGGAUUUUGCGAGAAGGAACAUGAGGAUCACCCAUGUCGGAU [JR_Exclu4_Sub041] (puzzle: Exclusion 4)
- apparent KD of MS2 coat protein [2]: 27.1 nM

Sequence: AAGUACCGUCACGAAAGUGAUGGUACAACAAGUAAAUGUACAUGAGGAUCACCCAUGUCCUCAAUUGCUCGUCUUAU [Sensor 3 - 60] (puzzle: Sensor v3, turn-off variant 2)
- apparent KD of MS2 coat protein [3]: 722 nM
- apparent KD of MS2 coat protein [2]: 202 nM
- apparent KD of MS2 coat protein [4]: 745 nM

Sequence: AAGUAGACAGUGAGGAUAUUGGUGGAAUGACACAUUAAGAAGGUACAUGAGGAUCACCCAUGUGGGUAAUGUCG [Brourd's EX4 #26] (Eterna round: R97, puzzle: Brourd's mod of Exclusion 4)
- apparent KD of MS2 coat protein (input ligand: FMN 200 uM): 64.8 nM
- apparent KD of MS2 coat protein (input ligand: none): 45.8 nM

— the supplement of paper PMC9170038
